B1: Ceramide transfer protein (Homo sapiens), Q9Y5P4 (parent)
chain: MSDNQSWNSSGSEEDPETESGPPVERCGVLSKWTNYIHGWQDRWVVLKNNALSYYKSEDETEYGCRGSICLSKAVITPHDFDECRFDISVNDSVWYLRAQDPDHRQQWIDAIEQHKTESGYGSESSLRRHGSMVSLVSGASGYSATSTSSFKKGHSLREKLAEMETFRDILCRQVDTLQKYFDACADAVSKDELQRDKVVEDDEDDFPTTRSDGDFLHSTNGNKEKLFPHVTPKGINGIDFKGEAITFKATTAGILATLSHCIELMVKREDSWQKRLDKETEKKRRTEEAYKNAMTELKKKSHFGGPDYEEGPNSLINEEEFFDAVEAALDRQDKIEEQSQSEKVRLHWPTSLPSGDAFSSVGTHRFVQKPYSRSSSMSSIDLVSASDDVHRFSSQVEEMVQNHMTYSLQDVGGDANWQLVVEEGEMKVYRREVEENGIVLDPLKATHAVKGVTGHEVCNYFWNVDVRNDWETTIENFHVVETLADNAIIIYQTHKRVWPASQRDVLYLSVIRKIPALTENDPETWIVCNFSVDHDSAPLNNRCVRAKINVAMICQTLVSPPEGNQEISRDNILCKITYVANVNPGGWAPASVLRAVAKREYPKFLKRFTSYVQEKTAGKPILF
partner: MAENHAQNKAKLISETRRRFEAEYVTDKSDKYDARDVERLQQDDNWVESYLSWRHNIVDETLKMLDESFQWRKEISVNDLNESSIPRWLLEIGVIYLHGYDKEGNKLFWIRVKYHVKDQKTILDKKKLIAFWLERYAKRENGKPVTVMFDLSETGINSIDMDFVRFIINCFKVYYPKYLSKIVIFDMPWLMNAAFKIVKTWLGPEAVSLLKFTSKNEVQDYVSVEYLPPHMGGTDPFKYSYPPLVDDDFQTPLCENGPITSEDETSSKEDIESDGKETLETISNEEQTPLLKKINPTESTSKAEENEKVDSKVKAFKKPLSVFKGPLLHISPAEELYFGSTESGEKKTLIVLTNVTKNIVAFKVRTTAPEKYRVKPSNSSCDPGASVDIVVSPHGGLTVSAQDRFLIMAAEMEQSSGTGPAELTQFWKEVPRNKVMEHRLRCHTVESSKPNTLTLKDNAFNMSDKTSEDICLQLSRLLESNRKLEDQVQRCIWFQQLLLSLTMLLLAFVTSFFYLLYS
B2: Oxysterol-binding protein-related protein 1 (Homo sapiens), Q9BXW6 (parent)
chain: MNTEAEQQLLHHARNGNAEEVRQLLETMARNEVIADINCKGRSKSNLGWTPLHLACYFGHRQVVQDLLKAGAEVNVLNDMGDTPLHRAAFTGRKELVMLLLEYNADTTIVNGSGQTAKEVTHAEEIRSMLEAVERTQQRKLEELLLAAAREGKTTELTALLNRPNPPDVNCSDQLGNTPLHCAAYRAHKQCALKLLRSGADPNLKNKNDQKPLDLAQGAEMKHILVGNKVIYKALKRYEGPLWKSSRFFGWRLFWVVLEHGVLSWYRKQPDAVHNIYRQGCKHLTQAVCTVKSTDSCLFFIKCFDDTIHGFRVPKNSLQQSREDWLEAIEEHSAYSTHYCSQDQLTDEEEEDTVSAADLKKSLEKAQSCQQRLDREISNFLKMIKECDMAKEMLPSFLQKVEVVSEASRETCVALTDCLNLFTKQEGVRNFKLEQEQEKNKILSEALETLATEHHELEQSLVKGSPPASILSEDEFYDALSDSESERSLSRLEAVTARSFEEEGEHLGSRKHRMSEEKDCGGGDALSNGIKKHRTSLPSPMFSRNDFSIWSILRKCIGMELSKITMPVIFNEPLSFLQRLTEYMEHTYLIHKASSLSDPVERMQCVAAFAVSAVASQWERTGKPFNPLLGETYELVRDDLGFRLISEQVSHHPPISAFHAEGLNNDFIFHGSIYPKLKFWGKSVEAEPKGTITLELLEHNEAYTWTNPTCCVHNIIVGKLWIEQYGNVEIINHKTGDKCVLNFKPCGLFGKELHKVEGYIQDKSKKKLCALYGKWTECLYSVDPATFDAYKKNDKKNTEEKKNSKQMSTSEELDEMPVPDSESVFIIPGSVLLWRIAPRPPNSAQMYNFTSFAMVLNEVDKDMESVIPKTDCRLRPDIRAMENGEIDQASEEKKRLEEKQRAARKNRSKSEEDWKTRWFHQGPNPYNGAQDWIYSGSYWDRNYFNLPDIY
partner: B1 partner
B3: Motile sperm domain-containing protein 2 (Homo sapiens), Q8NHP6 (parent)
chain: B1 partner
partner: B1 chain
B4: Motile sperm domain-containing protein 2 (Homo sapiens), Q8NHP6 (parent)
chain: B1 partner
partner: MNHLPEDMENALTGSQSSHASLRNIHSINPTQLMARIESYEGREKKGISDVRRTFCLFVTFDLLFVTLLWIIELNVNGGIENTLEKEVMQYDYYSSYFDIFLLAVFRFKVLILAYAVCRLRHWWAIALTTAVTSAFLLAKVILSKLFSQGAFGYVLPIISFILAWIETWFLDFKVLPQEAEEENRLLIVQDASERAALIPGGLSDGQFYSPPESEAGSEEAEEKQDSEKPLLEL
B5: StAR-related lipid transfer protein 3 (Homo sapiens), Q14849 (parent)
chain: MSKLPRELTRDLERSLPAVASLGSSLSHSQSLSSHLLPPPEKRRAISDVRRTFCLFVTFDLLFISLLWIIELNTNTGIRKNLEQEIIQYNFKTSFFDIFVLAFFRFSGLLLGYAVLRLRHWWVIAVTTLVSSAFLIVKVILSELLSKGAFGYLLPIVSFVLAWLETWFLDFKVLPQEAEEERWYLAAQVAVARGPLLFSGALSEGQFYSPPESFAGSDNESDEEVAGKKSFSAQEREYIRQGKEATAVVDQILAQEENWKFEKNNEYGDTVYTIEVPFHGKTFILKTFLPCPAELVYQEVILQPERMVLWNKTVTACQILQRVEDNTLISYDVSAGAAGGVVSPRDFVNVRRIERRRDRYLSSGIATSHSAKPPTHKYVRGENGPGGFIVLKSASNPRVCTFVWILNTDLKGRLPRYLIHQSLAATMFEFAFHLRQRISELGARA
partner: B1 partner
B6: Motile sperm domain-containing protein 2 (Homo sapiens), Q8NHP6 (parent)
chain: B1 partner
partner: B2 chain
B7: Motile sperm domain-containing protein 2 (Homo sapiens), Q8NHP6 (parent)
chain: B1 partner
partner: B5 chain
B8: Motile sperm domain-containing protein 2 (Homo sapiens), Q8NHP6 (parent)
chain: B1 partner
partner: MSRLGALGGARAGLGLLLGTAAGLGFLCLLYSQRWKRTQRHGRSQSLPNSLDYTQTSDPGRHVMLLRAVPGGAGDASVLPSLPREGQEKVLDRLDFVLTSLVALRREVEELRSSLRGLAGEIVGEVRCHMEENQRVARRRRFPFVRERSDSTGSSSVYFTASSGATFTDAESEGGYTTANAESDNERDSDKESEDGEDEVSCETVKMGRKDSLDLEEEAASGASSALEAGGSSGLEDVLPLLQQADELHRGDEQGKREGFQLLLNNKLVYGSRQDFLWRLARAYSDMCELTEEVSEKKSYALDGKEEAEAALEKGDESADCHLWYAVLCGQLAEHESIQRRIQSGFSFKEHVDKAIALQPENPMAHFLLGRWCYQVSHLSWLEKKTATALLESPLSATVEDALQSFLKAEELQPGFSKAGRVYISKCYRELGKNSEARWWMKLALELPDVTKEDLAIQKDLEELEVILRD
B9: Motile sperm domain-containing protein 2 (Homo sapiens), Q8NHP6 (parent)
chain: B1 partner
partner: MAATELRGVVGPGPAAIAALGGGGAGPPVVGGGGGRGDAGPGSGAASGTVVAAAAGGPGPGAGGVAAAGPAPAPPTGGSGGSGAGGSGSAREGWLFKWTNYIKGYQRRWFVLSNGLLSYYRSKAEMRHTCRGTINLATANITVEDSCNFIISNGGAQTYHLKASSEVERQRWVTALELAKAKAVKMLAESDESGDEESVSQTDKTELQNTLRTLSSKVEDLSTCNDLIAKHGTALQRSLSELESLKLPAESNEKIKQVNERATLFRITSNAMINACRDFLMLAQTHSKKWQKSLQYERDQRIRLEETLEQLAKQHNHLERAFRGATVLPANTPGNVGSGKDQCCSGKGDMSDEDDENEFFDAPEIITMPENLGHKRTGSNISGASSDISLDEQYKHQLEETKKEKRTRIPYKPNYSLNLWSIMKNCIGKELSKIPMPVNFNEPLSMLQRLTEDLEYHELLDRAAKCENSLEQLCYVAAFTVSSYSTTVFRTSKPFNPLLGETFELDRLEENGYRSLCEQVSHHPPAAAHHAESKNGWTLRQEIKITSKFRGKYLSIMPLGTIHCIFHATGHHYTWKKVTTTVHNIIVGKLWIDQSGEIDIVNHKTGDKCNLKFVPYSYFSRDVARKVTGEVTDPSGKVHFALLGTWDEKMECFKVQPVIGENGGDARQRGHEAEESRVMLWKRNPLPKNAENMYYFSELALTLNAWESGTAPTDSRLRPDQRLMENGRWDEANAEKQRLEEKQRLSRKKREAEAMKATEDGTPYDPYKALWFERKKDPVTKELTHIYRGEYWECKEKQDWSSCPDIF
B10: Vesicle-associated membrane protein-associated protein A (Homo sapiens), Q9P0L0 (parent)
chain: MASASGAMAKHEQILVLDPPTDLKFKGPFTDVVTTNLKLRNPSDRKVCFKVKTTAPRRYCVRPNSGIIDPGSTVTVSVMLQPFDYDPNEKSKHKFMVQTIFAPPNTSDMEAVWKEAKPDELMDSKLRCVFEMPNENDKLNDMEPSKAVPLNASKQDGPMPKPHSVSLNDTETRKLMEECKRLQGEMMKLSEENRHLRDEGLRLRKVAHSDKPGSTSTASFRDNVTSPLPSLLVVIAAIFIGFFLGKFIL
partner: B2 chain
B11: STARD3 N-terminal-like protein (Homo sapiens), O95772 (parent)
chain: B4 partner
partner: B1 partner

Variants of: B1
Details: with mspd2_human MOSPD2, Q8NHP6

Question: How did the “effect of a mutation on the interaction” value turn out when D324A was run?
Answer: disrupting interaction strength

Variants of: B2
Details: with mspd2_human MOSPD2, Q8NHP6

Question: How did the “effect of a mutation on the interaction” value turn out when F476A;Y477A was run?
Answer: disrupting interaction strength

Variants of: B3
Details: with cert_human CERT1, Q9Y5P4

Question: For R404D;L406D, which “effect of a mutation on the interaction” value is on record?
Answer: disrupting interaction strength

Variants of: B4
Details: with str3n_human STARD3NL

Question: How did the “effect of a mutation on the interaction” value turn out when R404D;L406D was run?
Answer: disrupting interaction strength

Variants of: B5
Details: with mspd2_human MOSPD2, Q8NHP6

Question: F207A;Y208A was tested. Which “effect of a mutation on the interaction” value did it give?
Answer: disrupting interaction strength

Variants of: B6
Details: with osbl1_human OSBPL1A

Question: How did the “effect of a mutation on the interaction” value turn out when R404D;L406D was run?
Answer: disrupting interaction strength

Variants of: B7
Details: with star3_human STARD3, Q14849

Question: How did the “effect of a mutation on the interaction” value turn out when R404D;L406D was run?
Answer: disrupting interaction strength

Variants of: B8
Details: with rmd3_human RMDN3, Q96TC7

Question: How did the “effect of a mutation on the interaction” value turn out when R404D;L406D was run?
Answer: disrupting interaction strength

Variants of: B9
Details: with osbp1_human OSBP

Question: How did the “effect of a mutation on the interaction” value turn out when R404D;L406D was run?
Answer: disrupting interaction strength

Variants of: B10
Details: with osbl1_human OSBPL1A

Question: For K94D;M96D, which “effect of a mutation on the interaction” value is on record?
Answer: disrupting interaction strength

Variants of: B11
Details: with mspd2_human MOSPD2, Q8NHP6

Question: With F208A;Y209A as the variant, how does the “effect of a mutation on the interaction” value read?
Answer: disrupting interaction strength

— IntAct's records for PubMed 29858488
